“And” between values parts separate entries of the source, which are not always exact repeats. Equal values may be shown once. Primed or numbered codes have the meaning given here. No end group written: not given here. Me3″ = trimethyl (trimethyl-lysine)
B3: MRG1 chromodomain (MRG1^CD, residues 28-110) (domain or fragment, Arabidopsis thaliana, UniProt Q94C32 28-110, looked up)
chain: LFSEGERVLAYHGPRVYGAKVQKVELRKKEWKYFVHYLGWNKNWDEWVSADRLLKHTEENLVKQKALDKKQGVEKGTKSGRSA
notes: MRG1 of Arabidopsis thaliana, chromodomain, residues 28-110; Homodimer by SEC-MALS; also called wild-type MRG1^CD; source: E. coli BL21 (DE3), purified (Ni HiTrap, tag removed by ULP enzyme, Superdex G75)

Experiments:
[1] = target: T1, MRG1^CDW58A (Arabidopsis thaliana, UniProt Q94C32, W58A); type: binding
T1 construct: Arabidopsis thaliana MRG1 (residues 28–110); His-SMT3 (SUMO) from modified pET28-SMT3 (N, cleaved yes); made in house; host or cells: Escherichia coli BL21 (DE3)
Experimental: The cDNA encoding the chromodomain of Arabidopsis thaliana MRG1 (residues 28–110) and Oryza sativa MRG701 (residues 27–96) were amplified by PCR and cloned into the modified pET28-SMT3 vector. Point mutants were generated by Site-Directed Mutagenesis kit (NEB) according to the manufacturer’s instructions. The plasmid was transformed into Escherichia coli strain BL21 (DE3). The cells were cultured in LB medium with 50 μg/mL kanamycin and induced by final concentration of 0.2 mmol/L isopropyl-β-d-thiogalactopyranoside (IPTG) at 18°C for 18 h. Cells were harvested and re-suspended in 20 mmol/L Tris pH 8.0, 500 mmol/L NaCl, 25 mmol/L imidazole and then broken by cell disruptor (JNBIO). The fusion protein was purified first with Ni HiTrap column (GE healthcare) and then removed the tag by ULP enzyme. The target protein was further purified with Superdex G75 Hiload 26/60 column (GE healthcare) and then concentrated to 20 mg/mL for structural and biochemical studies.
ITC experiments were carried out at 20°C on a MicroCal iTC200. Protein and peptide were kept in an identical buffer of 20 mmol/L Tris pH 8.0, 100 mmol/L NaCl. The sample cell was filled with a 0.1–0.2-mmol/L solution of protein, and the injection syringe with 1–2 mmol/L of the titrating ligand. […] Binding isotherms were analyzed by fitting data into the one-site model using the ITC data analysis module Origin 7.0 software.

[2] = target: T2, MRG2^CDE75A (Arabidopsis thaliana, UniProt Q4V3E2, E75A); type: binding
T2 construct: the Arabidopsis MRG2 chromodomain (MRG2^CD)
Experimental: ITC experiments were carried out at 20°C on a MicroCal iTC200. Protein and peptide were kept in an identical buffer of 20 mmol/L Tris pH 8.0, 100 mmol/L NaCl. The sample cell was filled with a 0.1–0.2-mmol/L solution of protein, and the injection syringe with 1–2 mmol/L of the titrating ligand. Each titration consisted of 20 2-μL injections with 2 min interval. Binding isotherms were analyzed by fitting data into the one-site model using the ITC data analysis module Origin 7.0 software.

[3] = target: MRG701 chromodomain (MRG701^CD, residues 27-96) (Oryza sativa); assay: ITC; MicroCal iTC200, 20°C, 20 mmol/L Tris pH 8.0, 100 mmol/L NaCl; protein 0.1-0.2 mmol/L in the cell, peptide 1-2 mmol/L in the syringe; one-site model
[4] = target: MRG701 chromodomain mutant W56A (MRG701^CDW56A) (Oryza sativa); assay: as above
[5] = target: MRG701 chromodomain (MRG701^CD, residues 27-96) (Oryza sativa); assay: SEC-MALS; Wyatt 015S5 (150 Å) column, 0.5 mL/min, 10 mmol/L Tris 8.0, 100 mmol/L NaCl; self-association of the chromodomain
[6] = SEC-MALS analysis of oligomerization status in solution; type: physicochemical; conditions: for oligomerization in crystal and in solution (in words): SEC-MALS and crystal structure; for Observed molar mass by SEC-MALS: Wyatt 015S5 (150 Å) column, 0.5 mL/min, 10 mmol/L Tris 8.0, 100 mmol/L NaCl, multi-angle light scattering and differential refractive index
Experimental: The absolute molar mass of target protein was determined by size exclusion chromatography coupled with multi-angel light scattering. The experiments were performed by an Agilent system connected with a Wyatt DAWN HELEOS-II multi-angle light scattering instrument and a Wyatt OptilabrEX differential refractometer. A Wyatt 015S5 (150 Å) column was used with a 100 μL sample loop at a flow rate of 0.5 mL/min in the running buffer of 10 mmol/L Tris 8.0, 100 mmol/L NaCl. The molar mass was calculated by light scattering intensity and differential refractive index using Wyatt ASTRA 6 software (Wyatt, [1993]).

[7] = target: the molecule itself; assay: SEC-MALS; Wyatt 015S5 (150 Å) column, 0.5 mL/min, 10 mmol/L Tris 8.0, 100 mmol/L NaCl; self-association of the chromodomain
[8] = target: T3, MRG1 chromodomain (MRG1^CD, residues 28-110) (Arabidopsis thaliana, UniProt Q94C32 28-110); assay: ITC
T3 chain: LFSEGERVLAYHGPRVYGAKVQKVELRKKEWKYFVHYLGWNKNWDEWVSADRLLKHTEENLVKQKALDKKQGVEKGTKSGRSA

[9] = target: T4, MRG2 chromodomain (MRG2^CD) (Arabidopsis, UniProt Q4V3E2 51-123); assay: ITC
T4 chain: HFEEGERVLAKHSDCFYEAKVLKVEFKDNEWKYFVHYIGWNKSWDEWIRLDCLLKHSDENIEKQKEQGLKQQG

[10] = target: T5, MRG2 chromodomain mutant E75A (MRG2^CDE75A) (Arabidopsis, UniProt Q4V3E2 51-123, E75A); assay: ITC
T5 sequence: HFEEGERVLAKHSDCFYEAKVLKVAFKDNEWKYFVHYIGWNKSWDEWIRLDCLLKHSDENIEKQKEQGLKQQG

[11] = target: T6, MRG1 chromodomain mutant W58A (MRG1^CDW58A) (Arabidopsis thaliana, UniProt Q94C32 28-110, W58A); assay: ITC
T6 sequence: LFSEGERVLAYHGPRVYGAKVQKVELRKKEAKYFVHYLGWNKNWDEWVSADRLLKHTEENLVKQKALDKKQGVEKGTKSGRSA

[12] = target: B3; assay: ITC; MicroCal iTC200, 20°C, 20 mmol/L Tris pH 8.0, 100 mmol/L NaCl; protein 0.1-0.2 mmol/L in the cell, peptide 1-2 mmol/L in the syringe; one-site model; conditions: both partners purified
[13] = target: T7, MRG1 chromodomain mutant W58A (MRG1^CDW58A) (Arabidopsis thaliana, UniProt Q94C32 28-110, W58A); assay: as above; conditions: both partners purified
T7 construct: MRG1 of Arabidopsis thaliana, chromodomain, residues 28-110, point mutant W58A; source: E. coli BL21 (DE3), purified (Ni HiTrap, tag removed by ULP enzyme, Superdex G75)
T7 sequence (looked up): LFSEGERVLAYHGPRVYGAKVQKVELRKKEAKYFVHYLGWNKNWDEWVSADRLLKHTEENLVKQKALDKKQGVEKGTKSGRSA

## C[C@H](N)C(=O)N[C@@H](CCCNC(=N)N)C(=O)N[C@H](C(=O)N[C@@H](CCCC[N+](C)(C)C)C(=O)N[C@@H](CCC(N)=O)C(=O)N[C@H](C(=O)N[C@@H](C)C(=O)N[C@@H](CCCNC(=N)N)C(=O)N[C@@H](CCCCN)C(=O)O)[C@@H](C)O)[C@@H](C)O [H3K4me3]
[1]
  difference of Kd between wild-type and mutant proteins (in words): only mild differences
[2]
  difference of Kd between wild-type and mutant proteins (in words): only mild differences

## histone H3K36me3 peptide (residues 31-41) (from UniProt P68431 32-42)
[3]
  Kd: 510 µM
[4]
  Kd: 260 µM

## MRG701 chromodomain (MRG701^CD, residues 27-96) (domain or fragment)
[5]
  stoichiometry N: 2

B1: MRG2 chromodomain (MRG2^CD) (domain or fragment, Arabidopsis)
chain: HFEEGERVLAKHSDCFYEAKVLKVEFKDNEWKYFVHYIGWNKSWDEWIRLDCLLKHSDENIEKQKEQGLKQQG
notes: MRG2 of Arabidopsis, chromodomain; Homodimer by SEC-MALS; also called wild-type MRG2^CD; source: purified
[6]
  oligomerization in crystal and in solution (in words): form dimers both in crystal and in solution
  Observed molar mass by SEC-MALS: 20.7 kDa and 20.74 ± 3.05 kDa
[7]
  stoichiometry N: 2

B2: MRG2^CDE75A: point mutant of MRG2 chromodomain disrupting hydrogen bonding and electrostatic interactions (protein)
chain: HFEEGERVLAKHSDCFYEAKVLKVAFKDNEWKYFVHYIGWNKSWDEWIRLDCLLKHSDENIEKQKEQGLKQQG
[6]
  Observed molar mass by SEC-MALS: 12.5 kDa and 12.47 ± 0.92 kDa

## B3
[7]
  stoichiometry N: 2

B4: MRG1^CDW58A: point mutant of MRG1 chromodomain disrupting π-π stacking (protein)
chain: LFSEGERVLAYHGPRVYGAKVQKVELRKKEAKYFVHYLGWNKNWDEWVSADRLLKHTEENLVKQKALDKKQGVEKGTKSGRSA
modifications: left off: SMT3 (from the modified vector pET28-SMT3), end not stated, cleaved
notes: point mutant of MRG1 chromodomain disrupting π-π stacking
[6]
  Observed molar mass by SEC-MALS: 13.4 kDa and 13.36 ± 1.40 kDa

B5: MRG1^CD: MRG1 chromodomain (residues 28–110), Arabidopsis thaliana (protein)
chain: LFSEGERVLAYHGPRVYGAKVQKVELRKKEWKYFVHYLGWNKNWDEWVSADRLLKHTEENLVKQKALDKKQGVEKGTKSGRSA
modifications: left off: SMT3 (from the modified vector pET28-SMT3), end not stated, cleaved
notes: MRG1 chromodomain (residues 28–110), Arabidopsis thaliana
[6]
  oligomerization in crystal and in solution (in words): form dimers both in crystal and in solution
  Observed molar mass by SEC-MALS: 20.7 kDa and 20.67 ± 2.99 kDa

B6: histone H3K4me3 peptide (residues 1-9) (peptide, UniProt P68431 2-10, looked up)
peptide: ARTK(Me3″)QTARK
notes: histone H3, residues 1-9, trimethylated at lysine 4
[8]
  Kd: 650 µM
[9]
  Kd: 520 µM
[10]
  Kd: 450 µM
[11]
  Kd: 910 µM
[3]
  Kd: 330 µM
[4]
  Kd: 250 µM
[12]
  binding result: binds
[13]
  binding result: binds

— PMC5084153, “Structural studies on MRG701 chromodomain reveal a novel dimerization interface of MRG proteins in green plants” (Protein & Cell, 2016)
